Target: myh9_human MYH9 (UniProt P35579)
Sequence (P35579 whole entry): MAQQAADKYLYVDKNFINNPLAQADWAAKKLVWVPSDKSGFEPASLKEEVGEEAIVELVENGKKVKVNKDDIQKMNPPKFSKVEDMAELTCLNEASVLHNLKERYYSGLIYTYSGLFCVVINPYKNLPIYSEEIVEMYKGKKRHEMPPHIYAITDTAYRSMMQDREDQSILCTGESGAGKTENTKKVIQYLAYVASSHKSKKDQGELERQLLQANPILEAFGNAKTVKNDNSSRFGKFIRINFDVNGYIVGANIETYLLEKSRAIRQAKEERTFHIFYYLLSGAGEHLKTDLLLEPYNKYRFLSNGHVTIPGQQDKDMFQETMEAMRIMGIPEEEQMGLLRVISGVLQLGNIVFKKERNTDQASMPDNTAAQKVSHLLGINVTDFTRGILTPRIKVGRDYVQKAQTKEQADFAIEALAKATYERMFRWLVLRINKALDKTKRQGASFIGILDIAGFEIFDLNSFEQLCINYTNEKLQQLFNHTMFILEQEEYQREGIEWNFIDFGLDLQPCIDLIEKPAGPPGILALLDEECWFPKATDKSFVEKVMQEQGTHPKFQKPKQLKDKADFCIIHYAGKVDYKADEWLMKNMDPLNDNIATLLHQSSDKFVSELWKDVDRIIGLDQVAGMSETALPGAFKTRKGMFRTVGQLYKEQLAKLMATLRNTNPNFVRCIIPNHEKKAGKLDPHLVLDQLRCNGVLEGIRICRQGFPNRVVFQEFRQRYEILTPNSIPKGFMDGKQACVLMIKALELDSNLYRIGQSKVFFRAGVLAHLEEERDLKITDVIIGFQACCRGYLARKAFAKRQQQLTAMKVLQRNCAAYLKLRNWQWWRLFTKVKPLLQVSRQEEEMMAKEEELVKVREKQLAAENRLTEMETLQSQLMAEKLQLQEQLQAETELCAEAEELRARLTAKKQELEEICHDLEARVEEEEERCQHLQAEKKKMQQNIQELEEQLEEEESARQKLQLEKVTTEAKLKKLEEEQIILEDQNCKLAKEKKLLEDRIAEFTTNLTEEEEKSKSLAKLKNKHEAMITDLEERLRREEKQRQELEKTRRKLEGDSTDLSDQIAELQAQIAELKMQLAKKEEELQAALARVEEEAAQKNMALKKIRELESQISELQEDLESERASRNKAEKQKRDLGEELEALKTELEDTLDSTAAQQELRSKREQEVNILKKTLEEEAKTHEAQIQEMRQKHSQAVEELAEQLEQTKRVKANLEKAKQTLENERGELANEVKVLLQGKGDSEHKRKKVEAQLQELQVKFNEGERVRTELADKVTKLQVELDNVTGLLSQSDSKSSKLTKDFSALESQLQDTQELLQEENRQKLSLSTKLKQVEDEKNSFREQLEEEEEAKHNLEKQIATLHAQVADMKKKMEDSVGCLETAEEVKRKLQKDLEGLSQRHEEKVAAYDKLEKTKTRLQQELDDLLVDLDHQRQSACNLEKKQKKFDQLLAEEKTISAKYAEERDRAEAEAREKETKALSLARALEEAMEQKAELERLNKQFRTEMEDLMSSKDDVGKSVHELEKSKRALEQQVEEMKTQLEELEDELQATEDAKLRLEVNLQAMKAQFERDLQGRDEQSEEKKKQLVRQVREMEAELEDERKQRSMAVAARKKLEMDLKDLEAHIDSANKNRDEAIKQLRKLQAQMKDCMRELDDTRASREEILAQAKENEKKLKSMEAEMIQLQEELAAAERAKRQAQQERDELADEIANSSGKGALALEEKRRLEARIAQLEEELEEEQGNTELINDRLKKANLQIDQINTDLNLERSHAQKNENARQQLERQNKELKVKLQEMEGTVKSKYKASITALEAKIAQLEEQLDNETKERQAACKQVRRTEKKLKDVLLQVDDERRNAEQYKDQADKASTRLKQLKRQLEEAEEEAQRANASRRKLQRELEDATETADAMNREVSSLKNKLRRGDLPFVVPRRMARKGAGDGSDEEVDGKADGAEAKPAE

Protein S100-A4 (Homo sapiens), P26447 C81D, sequence (P26447 whole entry C81D): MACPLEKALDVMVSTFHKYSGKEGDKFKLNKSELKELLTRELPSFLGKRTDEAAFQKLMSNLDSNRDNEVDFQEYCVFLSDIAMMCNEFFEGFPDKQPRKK

Row | Substance | effect of a mutation on the interaction
1 | Protein S100-A4 (Homo sapiens), P26447 V77D | disrupting interaction strength
2 | Protein S100-A4 (Homo sapiens), P26447 C81D | disrupting interaction strength
